From publication PMC9807187

Biological target: FLAG-tagged METTL3, wild type (UniProt Q8C3P7)
Assay: co-IP

UniProt Q8C3P7, sequence (Q8C3P7 whole entry): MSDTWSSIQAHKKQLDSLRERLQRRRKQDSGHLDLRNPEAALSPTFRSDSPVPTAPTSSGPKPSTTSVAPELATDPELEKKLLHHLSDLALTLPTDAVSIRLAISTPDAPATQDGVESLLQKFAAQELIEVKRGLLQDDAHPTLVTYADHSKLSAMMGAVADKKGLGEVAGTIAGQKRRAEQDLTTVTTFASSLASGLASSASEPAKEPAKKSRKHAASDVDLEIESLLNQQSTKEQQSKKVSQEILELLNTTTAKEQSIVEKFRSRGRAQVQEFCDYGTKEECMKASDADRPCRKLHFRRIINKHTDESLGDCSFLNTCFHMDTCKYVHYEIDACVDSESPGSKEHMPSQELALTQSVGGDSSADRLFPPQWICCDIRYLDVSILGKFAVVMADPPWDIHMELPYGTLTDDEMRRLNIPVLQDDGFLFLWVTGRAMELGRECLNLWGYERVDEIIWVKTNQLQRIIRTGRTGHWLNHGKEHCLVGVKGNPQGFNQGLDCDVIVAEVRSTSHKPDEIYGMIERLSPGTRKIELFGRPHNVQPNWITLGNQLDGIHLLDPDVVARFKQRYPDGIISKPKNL

HA-p53 25,26,53,54 (p53 L25Q,Q26S,F53Q,F54S mutant) (from UniProt P02340 1-390) (natural protein)
reduction of binding against wild-type p53: 50%
